{"source": "paper PMC10880305", "key": {"Halo-KDELR-V5-VN (human)": {"target": "T1, Halo-KDELR-V5-VN (human) (UniProt P24390)", "T1 sequence": "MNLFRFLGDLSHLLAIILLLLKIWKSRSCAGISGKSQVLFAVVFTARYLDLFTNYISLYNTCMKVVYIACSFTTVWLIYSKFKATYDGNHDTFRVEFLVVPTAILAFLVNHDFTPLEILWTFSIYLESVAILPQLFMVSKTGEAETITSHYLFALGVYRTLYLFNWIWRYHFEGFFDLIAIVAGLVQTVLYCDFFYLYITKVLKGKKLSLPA"}, "[1]": {"target": "T2, KDELR-mCherry (HT1080 stable) (human) (UniProt P24390)", "T2 sequence": "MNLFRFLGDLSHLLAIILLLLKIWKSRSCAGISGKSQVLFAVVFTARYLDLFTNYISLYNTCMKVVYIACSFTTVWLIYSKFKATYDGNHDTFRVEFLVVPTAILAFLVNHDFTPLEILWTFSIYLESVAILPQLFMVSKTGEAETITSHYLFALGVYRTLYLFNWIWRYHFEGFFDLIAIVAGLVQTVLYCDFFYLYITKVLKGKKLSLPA"}}}
{"binder": "TAEKDEL", "note": "[TAEKDEL peptide]", "values": [{"measurement": "Venus signal of Halo-KDELR-V5-VN with Halo-KDELR-myc-VC (split Venus), 30 min against 0 min with 50 μM TAEKDEL peptide", "setting": "Halo-KDELR-V5-VN (human)", "result": 2, "unit": "fold"}, {"measurement": "phosphorylation of STAT3 (Tyr705) in HT1080 cells stably overexpressing KDELR-mCherry, 50 μM TAEKDEL at 37 °C for 30 min, western blot", "setting": "[1]", "result": 37, "unit": "%"}]}
